# Reference: a protein production outcome set (Wang et al. 2014)
# Experiment: label from the status in PepcDB records
row,Sequence,protein production
1,MPKWTPYKRHPGVYEYQTKKGKRFGVRRTYDDAMGERKEFSKSGFIHWQDADIEIKRFEAKLVSGEVSGSLANRMTIDQYYQQMAKRKMKMGIWRESTARANGNFYSKYLKPAFGKTPLQDVSRAKYQRFLDELSQSGLALTTVHTIDAVMKSIMNAAEFEDVIDKNRLRGMQINGKAPRNKDLEPHSFELWLNAAKTNLDKYEMALIITATLGLRRGEVMGLRNESIKISHDQINDADVAQISIDMQRNTNELNGGPLKTKSSYRTIWAFGKTVDHLKYAMITADNLRQRNNIQAEKHWLWLNNDGNPLHPTHLNRLMRRVSNRSGVEVYPHLLRHYFATQAIAANKPQIDVMHYLGHKNLQMTADYTRSTKAASLNVFNSIDKFL,failed
2,MRALALICVVWVCWRESCARHGTEDSSESGLRYAYTLVVDGTANTRRCFGTGHVDGEAFVGYSNNKTHGIGRWVNASHVEEENKEFVRQCKELQAELDKMQNNSKVIGVKTVQLDVGCTSKIEKHYAYDGNETEDDTATSASERDRDCQKKLTEYRKLVLASAVSPQLEVERRSSGREGGMRLRCFARDYYPADLEIRWWKDDGGGGALPQTSKQHHDPLPSGNGLYQKHIDVYVDGGLEHVYSCRVKGIATGLELQIVRWKGYARGAGNSVVLLALFIPASVMAAVVVGSVLIRKKSKEQRKTRRRFGRRSGHEPKRPSYQVKRRAEPPCDLPMTIWFRGDNVMSTQVEACPAYAVTMSARELSDAWSNGDGPIVTVPDPSI,not failed
3,MVMAPLPPVESLSLRQAIAQMIVVRGAGYLFDYERPYPQWEADQTTLQRWIEAGIGGVILLGGSAAEVAQKTKQLQSWAEIPLLIAADIEEGVGQRFRGATEFPPPMAFGEIWRTDPHQAIALAETMGATTAQEALSLGINWVLAPVLDVNNNPHNPVINIRAFGETPDQVSALGTAFIRGAQQYAVLTTAKHFPGHGDTATDSHLALPTISHDDTRLNTVELPPFKAAIQGGVDAVMNAHLMIPAWDQQYPATLSPAILTGQLRHKLGFKGLIVTDALVMGGITQFAAPDTVVVQAIAAGADILLMPPDVDGAIIAIETAIKTGQLSESRIYESVERIWQAKQKILTATPSTFPQGISGDRPETRKTVAMVLERATKHQKSLVKISSFPDNFARNLIVVDSVLKSPFLRPNCPAIAIPQRHGYAAEIVELKTLPRLQLEAIPTLIQCFLRGNPFTEKLADPIDVLQKIAAQIPLQGVIFYGSPYFLEALQTTLPEIPWWFSYGQMAIAQAEICTSLWEEAPQAAPSAAEFI,not failed
4,MTLHLPGADGTLRAYEPRTEPLPTLRATSGSAFSSRTVFSAAHVVADPYADTTPDGPAAVDWDATLAFRRHLWSHGLGVAEAMDTAQRGMGLDWPTAAELIRRSAAEARATGGRIACGVGTDQLTATAATLADVRSAYEEQLAVVEESGAQAILMASRALAATAKGPDDYLEVYGHLLRQAAEPVILHWLGPMFDPALEGYWGSSDLDAATDTFLEVIAAHPDKVDGIKVSLLDAQREIDLRRRLPRGVRCYTGDDFNYPELIAGDEQGFSHALLGIFDPLGPLAAEAVRVLDTGDTDGFRALLDPTVELSRHLFRAPTRYYKTGVVFLAWLAGHQSHFTMVGGLQSARSLPHLARAYELADGLGLFPDPKPAEERMRNLLALYGVNA,failed
5,MEPKPFFLCIIFLLFCSSSSEILQKQTYIVQLHPNSETAKTFASKFDWHLSFLQEAVLGVEEEEEEPSSRLLYSYGSAIEGFAAQLTESEAEILRYSPEVVAVRPDHVLQVQTTYSYKFLGLDGFGNSGVWSKSRFGQGTIIGVLDTGVWPESPSFDDTGMPSIPRKWKGICQEGESFSSSSCNRKLIGARFFIRGHRVANSPEESPNMPREYISARDSTGHGTHTASTVGGSSVSMANVLGNGAGVARGMAPGAHIAVYKVCWFNGCYSSDILAAIDVAIQDKVDVLSLSLGGFPIPLYDDTIAIGTFRAMERGISVICAAGNNGPIESSVANTAPWVSTIGAGTLDRRFPAVVRLANGKLLYGESLYPGKGIKNAGREVEVIYVTGGDKGSEFCLRGSLPREEIRGKMVICDRGVNGRSEKGEAVKEAGGVAMILANTEINQEEDSIDVHLLPATLIGYTESVLLKAYVNATVKPKARIIFGGTVIGRSRAPEVAQFSARGPSLANPSILKPDMIAPGVNIIAAWPQNLGPTGLPYDSRRVNFTVMSGTSMSCPHVSGITALIRSAYPNWSPAAIKSALMTTADLYDRQGKAIKDGNKPAGVFAIGAGHVNPQKAINPGLVYNIQPVDYITYLCTLGFTRSDILAITHKNVSCNGILRKNPGFSLNYPSIAVIFKRGKTTEMITRRVTNVGSPNSIYSVNVKAPEGIKVIVNPKRLVFKHVDQTLSYRVWFVLKKKNRGGKVASFAQGQLTWVNSHNLMQRVRSPISVTLKTN,failed
6,MTEHCGAIKYFKSNFRRKRCLDFVCLTNLMFGLGSTPHGQVERADENNTLDLNNLPDDPSRDIFPFFEEGGFREKQTKDGKEYECRFCSLKFFKSQALGGHMNRHRQERETESLNKARELVLRNDSFPPHQGPPSFSYHQGDVHIGDLTQFKPMMYPPRHFSLPGSSSILQLQPPYLYPPLSSPFPQHNTNIGNNGTRHQTLTNSVCGGRALPDSSYTFIGAPVANGSRVAPHLPPHHGL,failed
7,MAKLRVGIVFGGKSAEHEVSLQSAKNIVDAIDKTRFDVVLLGIDKAGQWHVNDAENYLQNADDPAHIALRPSAISLAQVPGKHQHQLINAQNGQPLPTVDVIFPIVHGTLGEDGSLQGMLRVANLPFVGSDVLSSAACMDKDVAKRLLRDAGLNIAPFITLTRTNRHAFSFAEVESRLGLPLFVKPANQGSSVGVSKVANEAQYQQAVALAFEFDHKVVVEQGIKGREIECAVLGNDNPQASTCGEIVLNSEFYAYDTKYIDDNGAQVVVPAQIPSEVNDKIRAIAIQAYQTLGCAGMARVDVFLTADNEVVINEINTLPGFTNISMYPKLWQASGLGYTDLISRLIELALERHTANNALKTTM,not failed
8,MKEVIAQNAKLSADDLKEILPKANKLEDFAFEKNEDSTISEVFQAKNGSENEGYIIKVSPKGFNGPIDMVVAIDKNREISGVKVLSQAETPGLGAKVEESSFSEKFKGLTIEDNIKIVKTSPSSQGEIQGITGATISSNAVSSGINDAISFYKENVLGEDLSKEKILNLSKINLEGDLKELTIELEEGIDKVSIVSNGEKEIGYAIEASEVGMYEEKPIKFALGISTGGIITGVQIIDHKETAGLGDLIEDENFLNSFIGVSSLDKLSVKENTNEIDLSVYGEVVNVDSISGATKSSMAIIKGITNVINFYNNNLSLEHHHHHH,not failed
9,MKAKREQILIRTSWISTIGNAILSTSKIIVGLWAGSLAVLGDGIDSATDVIISIVMIFTARIISQPPSKKYVFGYEKAEGIATKILSLVIFYAGVQMLISSIGSIFSEEAKEIPSAIAIYVTIFSIIGKLLLALYQYKQGKKIDSSMLTANAINMRNDVIISSGVLLGLIFTFIFKLPILDSITGLIISLFIIKSSIGIFIDSNVELMDGVKDVNVYNKIFEAVETVPGASNPHRVRSRMIGNLYMITLDIEVNPQITITQAHQIADAVEKSIKSSIDNVYDILVHVEPAGECQTDEKFGIDKGMVN,failed
10,MAAGSLLTLLDDIATLLDDVALATKKTAGVLGDDLALNAQQVTGVSADRELPVVWAVAKGSLLNKAILVPAALLISAFAPWAILPLLMIGGAFLCFEGFEKIAHKWLHPEAGEEHDQRKQAATDASVDMVAFEKERIKGAIRTDFILSAEIIVLALGVVSARPFMDQVGVLVIVAVLITVGVYGLVAGIVKLDDLGLHLKRTASSVAQTIGSALLWLAPVLMKVLSIVGTAAMFMVGGGILVHGLPFAHHWADGVTEAASAAVGGLSMIVPTLIDAIAGIIAGAVLVLIVTLVGKVWKAARE,not failed
11,MVSTRTHANGPADAGRTRLLFAAEIFPMNVFSRYLIRHLFLGFAAAAGLLLPLFTTFNLINELDDVSPGGYRWTQAVLVVLMTLPRTLVELSPFIALLGGIVGLGQLSKNSELTAIRSMGFSIFRIALVALVAGILWTVSLGAIDEWVASPLQQQALQIKSTATALGEDDDITGNMLWARRGNEFVTVKSLNEQGQPVGVEIFHYRDDLSLESYIYARSATIEDDKTWILHGVNHKKWLNGKETLETLDNLAWQSAFTSMDLEELSMPGNTFSVRQLNHYIHYLQETGQPSSEYRLALWEKLGQPILTLAMILLAVPFTFSAPRSPGMGSRLAVGVIVGLLTWISYQIMVNLGLLFALSAPVTALGLPIAFVLVALSLVYWYDRQH,failed
12,MHNFSFDVDESYAKKNNEILRDAKRLQISALCLGLILGGGAVAVYLFSNGAVWMWMIAIVMVFLALLSFIMIPVIPRQMGNAQTLYDDYELAPAIIAEVNPRDVVLLALVNRNVNPEAKPEWALATRTIVRVGAHERRLGERIPSVAITGRRTVKDQDHWDEISPMPITWGTTDKDIIREAEKTIPHELWAKLEKNRGKLEDVKKTPNNLFKL,failed
